In paper PMC7042713:
Values belong to the substance of their own block, whether it stands above or below them.

How the values were obtained:
Test in all cases: SEC-MALS
[1] = molecular target: BhDIX Y10A; settings: parent: est. 9.0e4; read off a plot
[2] = molecular target: CpDIX D67A; settings: monomer mass of CpDIX printed in panel as 22kD; parent: 90
[3] = molecular target: BhDIX L8A; settings: parent: est. 9.0e4; read off a plot
[4] = molecular target: BhDIX K82A; settings: monomer mass of BhDIX printed in panel as 24kD; parent: 90
[5] = molecular target: AtSOK1 DIX domain D78A; settings: 2mg/ml D78A; parent value is 2mg/ml wt; calculated monomer mass of AtSOK1 DIX 25 kD (panel A); parent: 87

Substance: Blastocystis hominis DIX domain Y10A
- other: observed molar mass (SEC-MALS, self-association) [1]: 35000 g/mol

Substance: Cryptosporidium parvum DIX domain D67A
- other: observed molar mass (SEC-MALS, self-association) [2]: 22 kD

Substance: Blastocystis hominis DIX domain L8A
- other: observed molar mass (SEC-MALS, self-association) [3]: 55000 g/mol

Substance: Blastocystis hominis DIX domain K82A
- other: observed molar mass (SEC-MALS, self-association) [4]: 23 kD

- other: observed molar mass (SEC-MALS, self-association) [5]: 25 kD
Substance: AtSOK1 DIX domain (Arabidopsis thaliana SOSEKI1), wild type D78A
